Measured values taken from PMC12990809.

Tests used:
Experiment in all cases: pulldown
[1] = tested on: T1, ENSMODG00000011903 (Monodelphis domestica); conditions: 20 nM protein, 1.5 uM RNA pool; 20 mM HEPES pH 7.8, 70 mM KCl, 10 mM NaCl, 10% glycerol, 2 mM DTT, 0.1 ug/uL BSA; 30 min, 4 C
T1 sequence: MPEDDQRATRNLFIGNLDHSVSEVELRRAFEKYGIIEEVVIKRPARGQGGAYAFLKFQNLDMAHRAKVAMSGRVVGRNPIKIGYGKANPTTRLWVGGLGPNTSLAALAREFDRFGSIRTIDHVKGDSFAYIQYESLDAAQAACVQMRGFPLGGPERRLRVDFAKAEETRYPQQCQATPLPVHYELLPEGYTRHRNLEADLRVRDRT

[2] = target: T2, PK07890.1 (Cannabis sativa) (UniProt A0A7J6I7X4); conditions: 20 nM protein, 1.5 uM RNA pool; 20 mM HEPES pH 7.8, 70 mM KCl, 10 mM NaCl, 10% glycerol, 2 mM DTT, 0.1 ug/uL BSA; 30 min, 4 C
T2 sequence: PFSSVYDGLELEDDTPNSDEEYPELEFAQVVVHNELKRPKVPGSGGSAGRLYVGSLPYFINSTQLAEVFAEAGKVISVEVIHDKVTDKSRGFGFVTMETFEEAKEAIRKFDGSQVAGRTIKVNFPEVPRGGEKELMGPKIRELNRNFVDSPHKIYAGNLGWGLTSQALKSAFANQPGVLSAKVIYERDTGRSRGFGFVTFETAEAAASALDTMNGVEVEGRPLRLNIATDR

[3] = target: T3, CG4806 (Drosophila melanogaster) (UniProt Q3ZAN6); conditions: 20 nM protein, 1.5 uM RNA pool; 20 mM HEPES pH 7.8, 70 mM KCl, 10 mM NaCl, 10% glycerol, 2 mM DTT, 0.1 ug/uL BSA; 30 min, 4 C
T3 sequence: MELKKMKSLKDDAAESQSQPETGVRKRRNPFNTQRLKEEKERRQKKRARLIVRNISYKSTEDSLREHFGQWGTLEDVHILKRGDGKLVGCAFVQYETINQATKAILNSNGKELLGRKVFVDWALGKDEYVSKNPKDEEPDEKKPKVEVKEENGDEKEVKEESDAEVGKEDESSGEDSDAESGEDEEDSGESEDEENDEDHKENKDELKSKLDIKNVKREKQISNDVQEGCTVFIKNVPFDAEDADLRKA

[4] = target: T4, PK00353.1 del132-144;P293S (Cannabis sativa) (UniProt A0A7J6GFS8); conditions: 20 nM protein, 1.5 uM RNA pool; 20 mM HEPES pH 7.8, 70 mM KCl, 10 mM NaCl, 10% glycerol, 2 mM DTT, 0.1 ug/uL BSA; 30 min, 4 C
T4 sequence: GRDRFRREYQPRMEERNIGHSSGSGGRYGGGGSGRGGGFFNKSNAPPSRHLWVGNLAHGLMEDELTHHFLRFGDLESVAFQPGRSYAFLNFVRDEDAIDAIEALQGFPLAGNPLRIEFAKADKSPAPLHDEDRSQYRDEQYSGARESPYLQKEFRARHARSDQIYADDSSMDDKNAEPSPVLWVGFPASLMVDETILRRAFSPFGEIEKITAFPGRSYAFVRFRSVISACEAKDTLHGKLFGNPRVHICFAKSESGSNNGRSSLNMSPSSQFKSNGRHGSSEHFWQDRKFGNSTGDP

[5] = target: T5, LmjF.24.1570 (Leishmania major) (UniProt Q4QAH4); conditions: 20 nM protein, 1.5 uM RNA pool; 20 mM HEPES pH 7.8, 70 mM KCl, 10 mM NaCl, 10% glycerol, 2 mM DTT, 0.1 ug/uL BSA; 30 min, 4 C
T5 sequence: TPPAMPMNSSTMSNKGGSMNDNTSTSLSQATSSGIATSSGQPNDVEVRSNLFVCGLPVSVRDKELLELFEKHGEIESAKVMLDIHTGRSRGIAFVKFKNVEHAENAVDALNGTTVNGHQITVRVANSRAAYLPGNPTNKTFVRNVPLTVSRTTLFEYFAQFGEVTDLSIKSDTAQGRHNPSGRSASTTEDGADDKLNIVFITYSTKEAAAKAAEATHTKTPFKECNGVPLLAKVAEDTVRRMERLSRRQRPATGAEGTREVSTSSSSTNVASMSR

[6] = target: T6, Tb927.7.320 T9S (Trypanosoma brucei) (UniProt Q57U22); conditions: 20 nM protein, 1.5 uM RNA pool; 20 mM HEPES pH 7.8, 70 mM KCl, 10 mM NaCl, 10% glycerol, 2 mM DTT, 0.1 ug/uL BSA; 30 min, 4 C
T6 sequence: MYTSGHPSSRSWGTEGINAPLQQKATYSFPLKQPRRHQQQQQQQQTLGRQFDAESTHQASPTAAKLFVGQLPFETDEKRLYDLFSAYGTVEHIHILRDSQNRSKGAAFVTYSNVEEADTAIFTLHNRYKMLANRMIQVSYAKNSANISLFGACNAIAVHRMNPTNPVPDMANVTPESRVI

[7] = target: T7, LmjF.30.1110 (Leishmania major) (UniProt Q4Q7J2); conditions: 20 nM protein, 1.5 uM RNA pool; 20 mM HEPES pH 7.8, 70 mM KCl, 10 mM NaCl, 10% glycerol, 2 mM DTT, 0.1 ug/uL BSA; 30 min, 4 C
T7 sequence: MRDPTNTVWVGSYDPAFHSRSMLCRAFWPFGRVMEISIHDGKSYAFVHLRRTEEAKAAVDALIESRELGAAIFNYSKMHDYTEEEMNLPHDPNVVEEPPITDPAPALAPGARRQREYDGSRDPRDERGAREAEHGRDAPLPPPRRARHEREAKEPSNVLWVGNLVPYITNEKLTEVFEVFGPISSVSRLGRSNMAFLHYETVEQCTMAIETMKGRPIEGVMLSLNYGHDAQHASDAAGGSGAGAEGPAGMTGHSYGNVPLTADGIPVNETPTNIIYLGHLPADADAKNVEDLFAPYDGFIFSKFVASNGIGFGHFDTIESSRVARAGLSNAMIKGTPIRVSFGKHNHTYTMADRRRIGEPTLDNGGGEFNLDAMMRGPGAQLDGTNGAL

[8] = target: T8, PK21582.1 S73F;V173L (Cannabis sativa) (UniProt A0A7J6HF55); conditions: 20 nM protein, 1.5 uM RNA pool; 20 mM HEPES pH 7.8, 70 mM KCl, 10 mM NaCl, 10% glycerol, 2 mM DTT, 0.1 ug/uL BSA; 30 min, 4 C
T8 sequence: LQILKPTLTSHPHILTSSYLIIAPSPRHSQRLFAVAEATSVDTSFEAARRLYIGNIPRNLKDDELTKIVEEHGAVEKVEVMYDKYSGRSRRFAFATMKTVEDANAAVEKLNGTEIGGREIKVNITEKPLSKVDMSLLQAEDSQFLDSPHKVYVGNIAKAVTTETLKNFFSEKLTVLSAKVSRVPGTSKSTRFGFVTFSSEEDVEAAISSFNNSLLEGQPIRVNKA

[9] = target: T9, KHDRBS3 (Homo sapiens) (UniProt O75525); conditions: 20 nM protein, 1.5 uM RNA pool; 20 mM HEPES pH 7.8, 70 mM KCl, 10 mM NaCl, 10% glycerol, 2 mM DTT, 0.1 ug/uL BSA; 30 min, 4 C (protocol of this paper; not …); cited from earlier work
T9 sequence: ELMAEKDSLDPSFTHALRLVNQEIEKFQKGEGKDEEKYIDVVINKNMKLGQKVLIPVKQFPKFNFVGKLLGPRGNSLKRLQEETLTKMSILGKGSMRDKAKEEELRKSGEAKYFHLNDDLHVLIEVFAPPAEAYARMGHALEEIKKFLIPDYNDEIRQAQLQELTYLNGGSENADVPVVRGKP

Work on UUUUUUG [RNAcompete motif RNCMPT00758] yielded a binding signal (z-score (mean of top ten 7-mers)) [1] of 7.84.
In the case of GAUACU [RNAcompete motif RNCMPT00790], the binding signal (z-score (mean of top ten 7-mers)) [2] was 15.3.
With CUGUAGUA [RNAcompete motif RNCMPT00784] the binding signal (z-score (mean of top ten 7-mers)) [3] was 7.2.
In the case of CAAAGCA [RNAcompete motif RNCMPT00789], the binding signal (z-score (mean of top ten 7-mers)) [4] was 7.23.
UAUACU [RNAcompete motif RNCMPT00761] showed a binding signal (z-score (mean of top ten 7-mers)) [5] of 22.5.
Work on UUUGCUU [RNAcompete motif RNCMPT00751] yielded a binding signal (z-score (mean of top ten 7-mers)) [6] of 12.5.
With AUGAUG [RNAcompete motif RNCMPT00763] the binding signal (z-score (mean of top ten 7-mers)) [7] was 10.7.
In the case of ANUGGAA [RNAcompete motif RNCMPT00792], the binding signal (z-score (mean of top ten 7-mers)) [8] was 10.3.
In the case of GAUAAAC [RNAcompete motif RNCMPT00034], the binding signal (z-score (mean of top ten 7-mers)) [9] is given as 9.52.
